Reference: patent US20230051266A1 (ABL BIO, published 2023)
Residue numbers refer to the chain shown, from its start. Names may count otherwise.

T1: human BCMA-Fc protein (human, UniProt Q02223 1-54)
T1 construct: Coated antigen of the DACE
T1 sequence: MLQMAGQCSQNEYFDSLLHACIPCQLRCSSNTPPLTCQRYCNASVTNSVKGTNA

T2: human BCMA on cells (CHOK1-hBCMA; H929 endogenous BCMA) (human, UniProt Q02223 1-184)
T2 construct: Cell-surface BCMA in FACS; also called mammalian expressed BCMA; native antigen
T2 sequence: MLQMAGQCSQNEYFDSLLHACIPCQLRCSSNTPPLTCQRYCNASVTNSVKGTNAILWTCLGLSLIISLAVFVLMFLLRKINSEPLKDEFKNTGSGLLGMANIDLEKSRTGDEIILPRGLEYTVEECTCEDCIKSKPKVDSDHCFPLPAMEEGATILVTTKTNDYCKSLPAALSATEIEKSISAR

T3: Recombinant Human BCMA (human, UniProt Q02223 1-54)
T3 construct: also called hBCMA; recombinant BCMA
T3 sequence: T1 sequence

B1: 41B01 (anti-4-1BB monoclonal antibody) (antibody, V domains shown)
VH: EVQLLESGGGLVQPGGSLRLSCAASGFTFSSYDMSWVRQAPGKGLEWVSWISYSGGSIYYADSVKGRFTISRDNSKNTLYLQMNSLRAEDTAVYYCARDGQRNSMREFDYWGQGTLVTVSS
VL: QSVLTQPPSASGTPGRRVTISCSGSSSNIGNNYVTWYQQLPGTAPKLLIYADSHRPSGVPDRFSGSKSGTSASLAISGLRSEDEADYYCATWDYSLSGYVFGGGTKLTVL
notes: Tested as a human IgG type antibody (detected with anti-human IgG); also called 1A10
B2: 41B02 (anti-4-1BB monoclonal antibody) (antibody, V domains shown)
VH: EVQLLESGGGLVQPGGSLRLSCAASGFTFSGYDMSWVRQAPGKGLEWVSVIYPDDGNTYYADSVKGRFTISRDNSKNTLYLQMNSLRAEDAAVYYCAKHGGQKPTTKSSSAYGMDGWGQGTLVTVSS
VL: B1 VL
notes: Tested as a human IgG type antibody; also called 1A12
B3: 5A6(NA)x41B01 M12 (bispecific antibody, human IgG1, lambda, N297A)
heavy: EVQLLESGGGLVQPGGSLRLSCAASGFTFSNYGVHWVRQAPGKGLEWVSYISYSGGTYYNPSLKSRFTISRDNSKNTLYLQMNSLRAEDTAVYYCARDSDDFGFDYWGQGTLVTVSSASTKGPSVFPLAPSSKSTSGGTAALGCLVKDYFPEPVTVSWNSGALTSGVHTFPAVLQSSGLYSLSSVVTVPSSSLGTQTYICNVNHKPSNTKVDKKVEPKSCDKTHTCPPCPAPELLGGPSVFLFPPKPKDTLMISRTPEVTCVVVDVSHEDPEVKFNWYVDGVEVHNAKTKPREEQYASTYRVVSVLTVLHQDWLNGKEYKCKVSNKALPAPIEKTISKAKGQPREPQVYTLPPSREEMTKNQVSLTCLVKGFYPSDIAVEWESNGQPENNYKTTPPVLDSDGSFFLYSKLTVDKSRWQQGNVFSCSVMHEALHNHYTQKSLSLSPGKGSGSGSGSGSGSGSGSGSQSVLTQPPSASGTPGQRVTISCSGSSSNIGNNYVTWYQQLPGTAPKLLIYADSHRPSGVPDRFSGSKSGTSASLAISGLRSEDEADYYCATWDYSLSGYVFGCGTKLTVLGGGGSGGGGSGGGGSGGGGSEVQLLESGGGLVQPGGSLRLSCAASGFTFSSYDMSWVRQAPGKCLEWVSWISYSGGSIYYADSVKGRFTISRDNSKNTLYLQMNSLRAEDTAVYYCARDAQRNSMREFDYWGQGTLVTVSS
light: QSVLTQPPSASGTPGQRVTISCQGDSLRSYYVNWYQQLPGTAPKLLIYDHSKRPTGVPDRFSGSKSGTSASLAISGLRSEDEADYYCQSYDSSTVVFGGGTKLTVLGQPKAAPSVTLFPPSSEELQANKATLVCLISDFYPGAVTVAWKADSSPVKAGVETTTPSKQSNNKYAASSYLSLTPEQWKSHRSYSCQVTHEGSTVEKTVAPAECS
notes: also called 5A6(NA)x41B01 M12:WT; 5A6WT(NA)x41B01 M12
B4: 5A6M6(NA)x41B01 M12 (bispecific antibody, human IgG1, lambda, N297A)
heavy: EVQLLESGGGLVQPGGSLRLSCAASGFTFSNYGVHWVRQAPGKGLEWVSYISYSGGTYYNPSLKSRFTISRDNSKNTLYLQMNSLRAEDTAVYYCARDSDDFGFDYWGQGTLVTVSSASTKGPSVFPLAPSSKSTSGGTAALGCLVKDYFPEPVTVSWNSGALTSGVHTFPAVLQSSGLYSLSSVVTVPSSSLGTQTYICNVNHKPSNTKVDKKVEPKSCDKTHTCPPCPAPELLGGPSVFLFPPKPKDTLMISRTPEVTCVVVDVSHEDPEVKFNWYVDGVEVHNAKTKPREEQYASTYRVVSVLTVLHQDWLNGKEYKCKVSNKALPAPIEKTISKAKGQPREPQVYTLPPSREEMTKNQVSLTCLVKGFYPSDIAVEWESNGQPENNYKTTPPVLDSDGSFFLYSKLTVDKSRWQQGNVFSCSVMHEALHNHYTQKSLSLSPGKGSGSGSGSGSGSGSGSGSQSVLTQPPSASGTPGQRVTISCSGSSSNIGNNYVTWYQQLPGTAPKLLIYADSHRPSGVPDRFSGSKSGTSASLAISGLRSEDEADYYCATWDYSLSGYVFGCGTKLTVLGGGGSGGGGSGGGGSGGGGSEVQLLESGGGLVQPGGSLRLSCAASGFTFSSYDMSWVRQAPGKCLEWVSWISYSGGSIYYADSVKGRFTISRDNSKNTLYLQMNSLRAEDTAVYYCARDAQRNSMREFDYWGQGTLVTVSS
light: B3 light with D25E, S92A
notes: IgG1 N297A-(GS)9-scFv
B5: 5D5(NA)x41B01 M12 (bispecific antibody, human IgG1, kappa, N297A)
heavy: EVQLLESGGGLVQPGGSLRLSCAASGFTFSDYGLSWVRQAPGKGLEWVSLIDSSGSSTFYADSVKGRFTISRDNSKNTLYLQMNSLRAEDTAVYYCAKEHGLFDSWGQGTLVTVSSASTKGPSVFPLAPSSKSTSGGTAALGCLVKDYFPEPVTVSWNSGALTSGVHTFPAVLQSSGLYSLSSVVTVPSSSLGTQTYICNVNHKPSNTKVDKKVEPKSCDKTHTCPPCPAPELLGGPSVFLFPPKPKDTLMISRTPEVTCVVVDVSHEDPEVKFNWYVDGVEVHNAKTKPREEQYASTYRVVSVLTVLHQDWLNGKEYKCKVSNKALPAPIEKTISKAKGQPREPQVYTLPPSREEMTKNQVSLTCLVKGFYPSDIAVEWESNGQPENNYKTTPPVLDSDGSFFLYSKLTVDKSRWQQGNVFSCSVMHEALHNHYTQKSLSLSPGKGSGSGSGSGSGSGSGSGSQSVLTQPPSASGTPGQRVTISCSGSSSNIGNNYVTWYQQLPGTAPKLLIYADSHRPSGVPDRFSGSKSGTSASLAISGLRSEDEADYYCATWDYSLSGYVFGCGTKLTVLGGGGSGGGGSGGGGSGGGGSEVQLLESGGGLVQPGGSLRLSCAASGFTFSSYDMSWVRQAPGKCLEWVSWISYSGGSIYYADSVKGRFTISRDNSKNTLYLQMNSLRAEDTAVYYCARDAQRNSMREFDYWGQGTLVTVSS
light: EIVLTQSPGTLSLSPGERATLSCKASQDIDDDINWYQQKPGQAPRLLIYDASLRATGIPDRFSGSGSGTDFTLTISRLEPEDFAVYYCQQSLRTPITFGQGTKLEIKRTVAAPSVFIFPPSDEQLKSGTASVVCLLNNFYPREAKVQWKVDNALQSGNSQESVTEQDSKDSTYSLSSTLTLSKADYEKHKVYACEVTHQGLSSPVTKSFNRGEC
notes: also called 5D5(NA)x41B01 M12:WT; 5D5WT(NA)x41B01 M12
B6: 5D5M4(NA)x41B01 M12 (bispecific antibody, human IgG1, kappa, N297A)
heavy: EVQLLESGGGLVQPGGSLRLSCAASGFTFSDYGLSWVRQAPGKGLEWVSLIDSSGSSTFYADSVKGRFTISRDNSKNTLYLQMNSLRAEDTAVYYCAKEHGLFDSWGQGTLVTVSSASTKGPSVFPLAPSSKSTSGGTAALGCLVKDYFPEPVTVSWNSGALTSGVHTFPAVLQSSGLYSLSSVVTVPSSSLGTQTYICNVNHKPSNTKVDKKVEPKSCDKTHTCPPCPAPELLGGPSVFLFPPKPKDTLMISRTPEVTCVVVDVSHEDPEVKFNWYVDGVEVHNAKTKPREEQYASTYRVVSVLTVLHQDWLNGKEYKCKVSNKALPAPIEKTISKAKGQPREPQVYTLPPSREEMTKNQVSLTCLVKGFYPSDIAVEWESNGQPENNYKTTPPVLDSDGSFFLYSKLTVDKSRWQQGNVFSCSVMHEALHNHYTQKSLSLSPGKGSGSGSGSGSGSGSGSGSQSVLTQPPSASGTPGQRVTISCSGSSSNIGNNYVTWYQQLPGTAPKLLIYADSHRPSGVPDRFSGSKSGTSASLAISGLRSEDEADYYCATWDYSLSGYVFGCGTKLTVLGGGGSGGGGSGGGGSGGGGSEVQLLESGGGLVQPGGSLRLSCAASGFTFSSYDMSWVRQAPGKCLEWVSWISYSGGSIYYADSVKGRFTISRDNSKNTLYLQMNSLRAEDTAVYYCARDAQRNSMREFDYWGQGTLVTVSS
light: B5 light with D32A
notes: IgG1 N297A-(GS)9-scFv
B7: 5A6(NA)x41B01 (bispecific antibody, human IgG1, lambda, N297A)
heavy: not shown
light: B3 light
notes: IgG1 N297A-scFv; also called 5A6(NA) x41B01 (1A10)
B8: 5A6(NA)x41B02 (bispecific antibody, human IgG1, lambda, N297A)
heavy: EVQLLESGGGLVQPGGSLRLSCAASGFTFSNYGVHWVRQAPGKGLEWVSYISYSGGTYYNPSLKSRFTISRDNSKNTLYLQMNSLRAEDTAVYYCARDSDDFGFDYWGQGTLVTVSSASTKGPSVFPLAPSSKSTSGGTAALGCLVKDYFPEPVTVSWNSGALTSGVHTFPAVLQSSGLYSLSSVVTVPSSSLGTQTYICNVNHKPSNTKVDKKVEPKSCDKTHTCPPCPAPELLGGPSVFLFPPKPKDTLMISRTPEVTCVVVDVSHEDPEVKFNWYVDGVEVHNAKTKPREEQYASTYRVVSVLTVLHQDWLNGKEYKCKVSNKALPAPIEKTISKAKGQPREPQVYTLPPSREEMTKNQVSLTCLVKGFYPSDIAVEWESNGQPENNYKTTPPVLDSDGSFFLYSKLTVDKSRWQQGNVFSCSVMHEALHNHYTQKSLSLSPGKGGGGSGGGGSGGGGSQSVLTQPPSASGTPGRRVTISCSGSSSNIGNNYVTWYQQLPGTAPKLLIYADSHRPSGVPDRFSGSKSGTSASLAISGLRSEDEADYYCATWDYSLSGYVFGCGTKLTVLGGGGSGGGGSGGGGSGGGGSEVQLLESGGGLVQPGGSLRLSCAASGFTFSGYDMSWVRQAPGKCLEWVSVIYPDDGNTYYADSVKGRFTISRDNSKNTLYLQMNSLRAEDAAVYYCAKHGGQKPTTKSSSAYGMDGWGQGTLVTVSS
light: B3 light
notes: IgG1 N297A-scFv (VL-(G4S)4-VH); also called 5A6(NA) x41B02 (1A12)
B9: 5B5(NA)x41B02 (bispecific antibody, human IgG1, kappa, N297A)
heavy: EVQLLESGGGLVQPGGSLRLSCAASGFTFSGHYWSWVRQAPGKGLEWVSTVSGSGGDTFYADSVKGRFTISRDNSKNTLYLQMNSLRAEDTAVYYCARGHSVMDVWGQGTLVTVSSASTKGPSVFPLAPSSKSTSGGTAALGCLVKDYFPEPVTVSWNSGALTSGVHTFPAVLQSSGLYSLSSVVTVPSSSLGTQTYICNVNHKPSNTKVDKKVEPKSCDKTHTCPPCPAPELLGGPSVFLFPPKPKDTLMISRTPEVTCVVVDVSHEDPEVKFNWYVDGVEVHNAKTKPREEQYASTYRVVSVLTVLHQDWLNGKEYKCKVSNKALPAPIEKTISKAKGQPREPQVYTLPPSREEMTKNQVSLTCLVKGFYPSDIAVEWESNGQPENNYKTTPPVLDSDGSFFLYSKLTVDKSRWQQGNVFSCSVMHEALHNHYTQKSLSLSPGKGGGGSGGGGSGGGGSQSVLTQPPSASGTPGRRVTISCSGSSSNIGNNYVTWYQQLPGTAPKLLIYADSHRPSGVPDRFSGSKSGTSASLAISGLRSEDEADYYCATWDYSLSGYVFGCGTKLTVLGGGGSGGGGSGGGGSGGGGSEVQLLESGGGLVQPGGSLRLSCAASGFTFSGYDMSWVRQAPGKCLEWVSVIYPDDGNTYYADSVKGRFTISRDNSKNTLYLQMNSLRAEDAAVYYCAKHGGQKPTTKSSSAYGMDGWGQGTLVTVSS
light: B5 light with K24R, D28G, D31S, D32Y, I33V, N34A, S91Y, L92N, R93S, T94W
notes: IgG1 N297A-scFv (VL-(G4S)4-VH); also called 5B5(NA) x41B02 (1A12)
B10: 5D5(NA)x41B02 (bispecific antibody, human IgG1, kappa, N297A)
heavy: not shown
light: B5 light
notes: IgG1 N297A-scFv (VL-(G4S)4-VH); also called 5D5(NA) x41B02 (1A12)
B11: 5D5(NA)x41B01 (bispecific antibody, human IgG1, kappa, N297A)
heavy: not shown
light: B5 light
notes: IgG1 N297A-scFv; also called 5D5(NA) x41B01 (1A10)
B12: 5B5(NA)x41B01 (bispecific antibody, human IgG1, kappa, N297A)
heavy: not shown
light: B5 light with K24R, D28G, D31S, D32Y, I33V, N34A, S91Y, L92N, R93S, T94W
notes: IgG1 N297A-scFv; also called 5B5(NA) x41B01 (1A10)
B13: 5A6(NA)xAB41 (bispecific antibody, human IgG1, lambda, N297A)
heavy: not shown
light: B3 light
notes: IgG1 N297A-scFv (VL-(G4S)4-VH)
B14: 5B5(NA)xAB41 (bispecific antibody, human IgG1, kappa, N297A)
heavy: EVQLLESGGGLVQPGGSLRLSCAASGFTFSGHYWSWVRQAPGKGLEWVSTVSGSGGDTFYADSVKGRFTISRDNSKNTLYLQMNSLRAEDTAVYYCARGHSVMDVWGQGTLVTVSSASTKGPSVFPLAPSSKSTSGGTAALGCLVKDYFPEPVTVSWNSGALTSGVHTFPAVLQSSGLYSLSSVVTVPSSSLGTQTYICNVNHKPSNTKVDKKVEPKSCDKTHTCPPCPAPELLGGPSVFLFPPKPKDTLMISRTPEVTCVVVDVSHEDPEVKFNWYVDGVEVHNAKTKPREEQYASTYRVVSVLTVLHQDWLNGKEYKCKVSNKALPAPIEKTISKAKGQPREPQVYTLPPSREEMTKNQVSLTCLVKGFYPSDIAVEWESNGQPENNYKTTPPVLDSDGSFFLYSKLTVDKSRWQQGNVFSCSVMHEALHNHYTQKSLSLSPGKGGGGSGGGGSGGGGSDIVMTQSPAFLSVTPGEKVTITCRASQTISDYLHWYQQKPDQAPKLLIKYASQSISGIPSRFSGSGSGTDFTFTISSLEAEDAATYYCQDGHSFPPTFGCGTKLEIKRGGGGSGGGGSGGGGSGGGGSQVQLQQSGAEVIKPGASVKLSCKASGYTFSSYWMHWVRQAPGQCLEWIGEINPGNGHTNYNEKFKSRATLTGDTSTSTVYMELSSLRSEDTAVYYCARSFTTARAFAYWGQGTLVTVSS
light: B5 light with K24R, D28G, D31S, D32Y, I33V, N34A, S91Y, L92N, R93S, T94W
notes: as for B13
B15: 5D5(NA)xAB41 (bispecific antibody, human IgG1, kappa, N297A)
heavy: not shown
light: B5 light
notes: as for B13

The binders below were run against T4, Recombinant Human 4-1BB protein (human, UniProt Q07011 24-186) (assay: BLI, Octet Red 96).
T4 construct: also called h4-1BB; 4-1BB antigen
Source text: To explore the binding kinetics of the humanized antibody, this example performed the affinity ranking by using Octet Red 96.

Point of comparison: B2, Kd 1.01 nM. Against it:
- B1 — 5.6-fold lower, 0.18 nM

Point of comparison: B2, koff 0.000603 s⁻¹. Against it:
- B1 — 5.1-fold lower, 0.000119 s⁻¹

Point of comparison: B2, kon 595000 M⁻¹ s⁻¹. Against it:
- B1 — within 1.5-fold, 658000 M⁻¹ s⁻¹

These binders were tested against T1, human BCMA-Fc protein (assay: DACE (dual antigen captured ELISA): plate coated with human BCMA-Fc, bispecific antibody titrated, then human 4-1BB-His; Abs at 450 nm).

Point of comparison: B3, “EC50 (read off the curve)” value ~0.5 nM. Against it:
- B4 — 1.7-fold lower, ~0.3 nM
- B5 — the same, ~0.5 nM
- B6 — within 1.5-fold, ~0.4 nM

Each binder was assayed against T5, human 4-1BB on GloResponse NFkB-luc2/4-1BB Jurkat cells (human, UniProt Q07011 24-255) (assay: cell-based or functional assay).

Point of comparison: B11, “4-1BB reporter bioassay (NFkB-luc2/4-1BB Jurkat) with H929 cells, EC50” value 5.35 nM. Against it:
- B7 — 1.7-fold lower, 3.16 nM
- B8 — 2.7-fold higher, 14.3 nM
- B9 — 2.3-fold higher, 12.1 nM
- B10 — 2-fold higher, 10.9 nM
- B12 — within 1.5-fold, 5.76 nM

Molecular target: T5, human 4-1BB on GloResponse …
Test: cell-based or functional assay
Remark: another data set of the same source

Point of comparison: B6, “In vitro 4-1BB activation (reporter bioassay) with H929 cells, EC50” value 0.377 nM. Against it:
- B3 — within 1.5-fold, 0.459 nM
- B4 — 2.3-fold lower, 0.165 nM
- B5 — 1.7-fold higher, 0.629 nM

Point of comparison: B4, “In vitro 4-1BB activation (reporter bioassay) with MM1S cells, EC50” value 1.98 nM. Against it:
- B3 — within 1.5-fold, 2.26 nM
- B5 — within 1.5-fold, 2.66 nM
- B6 — within 1.5-fold, 2.41 nM

What follows are binders tested against T2, human BCMA on cells (CHOK1-hBCMA; H929 …) (assay: FACS, 100 nM antibody, H929 cells).
Procedure: (§1) To evaluate the antigen binding property, the antibody candidates were analyzed for their bindings to BCMA expressed cells by FACS. Briefly, CHOK1 expressing human BCMA (CHOK1-hBCMA) or H929 expressing endogenous BCMA cells were treated with the 100 nM of indicated antibodies at 4° C. for 1 hr. CHOK1 cells were used for BCMA-negative control. After washing by FACS buffer (1% (w/v) BSA in PBS), cells were incubated with the FTTC-anti-human IgG antibody at 4° C. for 1 hr and then subjected to FACS analysis. As shown in FIGS. 2d-2f, the anti-BCMAx4-1BB antibodies bind to BCMA expressed CHOK1-hBCMA and H929 cell lines but not BCMA negative CHOK1.

Point of comparison: B14, “quantified FACS signal (name not given)” value 14.1. Against it:
- B13 — higher, 39.9
- B7 — higher, 43.8
- B8 — higher, 40.3
- B9 — higher, 14.9
- B10 — higher, 20.2
- B11 — higher, 17.9
- B12 — higher, 17.6
- B15 — higher, 19.7

The binders below were run against T3, Recombinant Human BCMA (assay: SPR, bispecific antibody on Protein A chip, antigen flowed).
Procedure: In the SPR experiment, the anti-BCMA/anti-4-1BB bispecific antibodies obtained in Example 3-5 were individually captured on flow-cells 2, 3 and 4, keeping the flow-cell 1 as reference, on a Protein A Chip on which an anti-BCMA/anti-4-1BB Bispecific antibody (5D5M4(NA)×41B01 M12 or 5A6M6(NA)×41B01 M12) had been immobilized by amine coupling. Recombinant Human BCMA or Human 4-1BB protein was flowed across the chip at concentration range from 100 nM to 6.25 nM for human BCMA or 250 nM to 15.625 nM for human 4-1BB and 0.78 nM at […] for 300 seconds, followed by a dissociation phase of 400 seconds. Regeneration was performed with 10 mM Glycine-HCl (pH 2.0).

Point of comparison: B6, Kd 16 nM. Against it:
- B4 — within 1.5-fold, 22.6 nM

Point of comparison: B6, koff 0.065 s⁻¹. Against it:
- B4 — 5.5-fold lower, 0.0119 s⁻¹

Point of comparison: B4, kon 527000 M⁻¹ s⁻¹. Against it:
- B6 — 7.7-fold higher, 4.07e+06 M⁻¹ s⁻¹

What follows are binders tested against T2, human BCMA on cells (CHOK1-hBCMA; H929 …) (assay: FACS, 100 nM antibody, CHOK1-hBCMA cells).
Procedure: as §1

Point of comparison: B13, “quantified FACS signal (name not given)” value 636. Against it:
- B7 — higher, 652
- B8 — higher, 646
- B9 — lower, 484
- B10 — lower, 602
- B11 — lower, 579
- B12 — lower, 493
- B14 — lower, 477
- B15 — lower, 585

Molecular target: T5, human 4-1BB on GloResponse …
Test: cell-based or functional assay
Remark: another data set of the same source

Point of comparison: B10, “4-1BB reporter bioassay (NFkB-luc2/4-1BB Jurkat) with CHOK1-hBCMA cells, EC50” value 0.0314 nM. Against it:
- B13 — within 1.5-fold, 0.0397 nM
- B7 — 2-fold higher, 0.0616 nM
- B8 — within 1.5-fold, 0.0413 nM
- B9 — 10-fold lower, 0.003 nM
- B11 — 2.2-fold higher, 0.0691 nM
- B12 — within 1.5-fold, 0.0316 nM
- B14 — 2.4-fold higher, 0.0741 nM
- B15 — within 1.5-fold, 0.0426 nM
